Source: patent US20220348684A1 (YALE UNIVERSITY, published 2022)
Ends that are not written are not given here. BSA = bovine serum albumin (carrier protein)

T1: 1F peptide conjugated to BSA
T1 construct: Renalase peptide present only in renalase-1; also called 1F-BSA protein; 1F antigen; not shown: BSA carrier, chemically conjugated via the cysteine
T1 peptide: C(BSA)VLEALKNYI

T2: peptide 3A conjugated to BSA
T2 construct: Renalase-2 specific peptide; also called 3A5; not shown: BSA carrier, chemically conjugated via the cysteine
T2 peptide: PSAGVILGC(BSA)


Assays:
[1] = biological target: T3, renalase-2 (recombinant protein) (human, UniProt Q5VYX0 18-293); experiment: ELISA on coated renalase-2, antibody dilution series (axis: log (ng/ml) supe), anti-rabbit IgG-HRP
T3 construct: Bacterially expressed and coated on ELISA plates; also called renalase-2 isoform
T3 sequence (Q5VYX0 other isoform, or with tags, fused parts or gaps limits assumed): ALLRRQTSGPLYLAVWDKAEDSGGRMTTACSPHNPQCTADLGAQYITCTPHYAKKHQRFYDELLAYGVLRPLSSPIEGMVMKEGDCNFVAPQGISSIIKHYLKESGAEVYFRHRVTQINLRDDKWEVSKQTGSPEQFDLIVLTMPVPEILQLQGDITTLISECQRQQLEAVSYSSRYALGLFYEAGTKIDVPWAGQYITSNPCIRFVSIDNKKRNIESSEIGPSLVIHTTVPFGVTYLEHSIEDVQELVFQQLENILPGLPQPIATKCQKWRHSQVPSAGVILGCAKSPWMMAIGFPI
Experimental: Bacterially-expressed renalase-1 and 2 isoforms, were diluted to 100 ng/well in PBS and bound to a 96 well microtiter plate. The plate was blocked with a solution of 8% NFDM in PBS for one hour at 33° C. The renalase proteins were probed with a dilution series of the antibodies 1D-28-4, 1D-37-10, 1F-42-7, 1F-26-1 and 3A5-2. The starting concentration of antibody was typically 1μg/mL, with two-fold dilution steps prepared in PBS containing Tween-20 to 0.05% PBST. After one hour incubation at 33° C., the plate was rinsed three times with PBST. Antibody binding was assayed by adding HRP-conjugated anti-rabbit IgG at 50 ng/mL, 50μL per well. The plate was incubated at room temperature for 40 minutes. After incubation, the plate was washed three times with PBST and once with PBS. The HRP substrate 3, 3′, 5, 5′-tetramethylbenzidine (TMB) was added to 100 μL per well, and plate was incubated for approximately 5 minutes at room temperature. To stop the reaction, 100 μL 2 N H₂SO₄ was added to each well. The plate was read at 450 nm in a spectrophotometer.

[2] = biological target: T1, 1F peptide conjugated to BSA; experiment: ELISA on coated 1F peptide-BSA conjugate, antibody dilution series, anti-rabbit IgG-HRP
Experimental: (§1) Peptide-Antigen Specificity ELISA: Bovine serum albumin (BSA)-conjugated renalase peptide antigen, diluted to 100 ng/well in PBS, was bound to a 96 well microtiter plate by overnight incubation at 4° C. The plate was blocked with a solution of 8% NFDM in PBS for one hour at 33° C. The peptide antigen was probed with a dilution series of the antibody raised against it, or with an antibody raised against a different antigen. The starting concentration of antibody was typically 5 μg/mL, with two-fold dilution steps prepared in PBS containing Tween-20 to 0.05% (PBST). After one hour incubation at 33° C., the plate was rinsed three times with PBST. Antibody binding was assayed by adding HRP-conjugated anti-rabbit IgG at 50 ng/mL, 50 μL per well. The plate was incubated at room temperature for 40 minutes. After incubation, the plate was washed three times with PBST and once with PBS. The HRP substrate 3, 3′, 5, 5′-tetramethylbenzidine (TMB) was added to 100 μL per well, and plate was incubated for approximately 5 minutes at room temperature. To stop the reaction, 100 μL 2 N […] was added to each well. The plate was read at 450 nm in a spectrophotometer.
(§2) Renalase peptides used for immunization were synthesized, then conjugated to bovine serum albumin (BSA). […] The plate was read at 450 nm in a spectrophotometer after reaction of HRP with the substrate TMB. […]

[3] = biological target: T4, renalase-1 (full-length recombinant protein) (human, UniProt Q5VYX0 18-342, limits assumed); experiment: competition ELISA on coated renalase-1: unconjugated 1F 42-7 titrated against a constant amount of biotinylated 1F 26-1, NeutrAvidin-HRP [panel A]
T4 construct: Coated on ELISA plates as bacterially expressed renalase-1; Injected as purified recombinant renalase-1 in the Biacore assay; also called renalase-1 protein; RNLS
T4 sequence (Q5VYX0 18-342 limits assumed): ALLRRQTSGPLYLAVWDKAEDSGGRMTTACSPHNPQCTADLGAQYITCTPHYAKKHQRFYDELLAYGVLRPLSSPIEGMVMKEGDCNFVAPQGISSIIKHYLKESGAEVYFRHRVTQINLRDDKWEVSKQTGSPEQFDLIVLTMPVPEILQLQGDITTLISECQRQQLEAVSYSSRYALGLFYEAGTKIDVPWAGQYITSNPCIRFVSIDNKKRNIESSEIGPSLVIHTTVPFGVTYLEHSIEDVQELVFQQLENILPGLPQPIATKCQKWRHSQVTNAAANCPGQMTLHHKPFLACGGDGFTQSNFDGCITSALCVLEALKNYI
Experimental: (§3) Specificity of Epitope Binding: Bacterially-expressed renalase isoforms, diluted to 100 ng/well in PBS, were bound to a 96 well microtiter plate by overnight incubation at 4° C. The plate was blocked with a solution of 8% NFDM in PBS for one hour at 33° C. The renalase protein was probed with a dilution series of an unconjugated antibody, typically starting at 1 μg/mL, mixed with a different biotinylated antibody. […] Both antibodies were mixed together in PBST and applied as one addition of 50μL per well. After one hour incubation at 33° C., the plate was rinsed three times with PBST. Binding of the biotinylated antibody to renalase was assayed by adding HRP-conjugated Neutravidin (HRP-NA) at 0.4 ng/mL, 50 μL per well. The plate was incubated at room temperature for 40 minutes. After incubation, the plate was washed three times with PBST and once with PBS. The HRP substrate 3, 3′, 5, 5′-tetramethylbenzidine (TMB) was added to 100 μL per well, and plate was incubated for approximately 5 minutes at room temperature. To stop the reaction, 100 μL 2 N H2504 was added to each well. The plate was read at 450 nm in a spectrophotometer.
(§4) Bacterially-expressed renalase-1, diluted to 100ng/well in PBS, was bound to a 96 well microtiter plate by overnight incubation at 4° C. […]

[4] = biological target: T2, peptide 3A conjugated to BSA; experiment: ELISA on peptide antigen
Experimental: as §1, §2

[5] = biological target: T4, renalase-1 (full-length recombinant …); experiment: competition ELISA on coated renalase-1: unconjugated 1D 28-4 titrated against a constant amount of biotinylated 1D 37-10, NeutrAvidin-HRP [panel A]
Experimental: as §3, §4

[6] = biological target: T5, human renalase (human, UniProt Q5VYX0 18-342, limits assumed); experiment: multipoint ELISA (A450), IgG dilution series on human renalase
T5 construct: also called human RNLS; hRNLS
T5 sequence (Q5VYX0 18-342 limits assumed): as above

[7] = biological target: T6, mouse renalase (mouse, UniProt A7RDN6 18-342, limits assumed); experiment: cell-based or functional assay
T6 sequence (A7RDN6 18-342 limits assumed): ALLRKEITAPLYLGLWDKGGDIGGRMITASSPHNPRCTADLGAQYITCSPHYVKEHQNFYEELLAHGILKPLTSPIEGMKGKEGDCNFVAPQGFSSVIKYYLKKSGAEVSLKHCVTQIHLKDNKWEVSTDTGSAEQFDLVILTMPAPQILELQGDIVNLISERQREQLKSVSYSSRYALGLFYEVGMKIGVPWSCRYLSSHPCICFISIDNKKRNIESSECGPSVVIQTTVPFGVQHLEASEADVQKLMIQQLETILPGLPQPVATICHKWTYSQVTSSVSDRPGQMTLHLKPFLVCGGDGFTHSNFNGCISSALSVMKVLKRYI

[8] = biological target: T5, human renalase; experiment: cell-based or functional assay
[9] = biological target: T6, mouse renalase; experiment: multipoint ELISA (A450), IgG dilution series on mouse renalase

| Binder | EC50 (read off the curve) [6] [nM] | IC50 of % cell survival, YUMM1.7 (mouse melanoma) cells [7] [nM] | IC50 of % cell survival, BxPC3 (human pancreatic adenocarcinoma) cells [8] [nM] | also measured |
| --- | --- | --- | --- | --- |
| monoclonal antibody 1F-26-1 (antibody, V domains shown, Rabbit monoclonal from hybridoma, raised against the 1F peptide; also called IF 26-1) VH: QSVKESEGGLFKPTDTLTLTCTVSGFSLSSYGVTWVRQAPGNGLEWIGLIGDRGTTFYASWAKSRSTITRNTNLNTVTLKMTRLTAADTATYFCARGSGYGARIWGPGTLVTVSS VL: AQVLTQTPSPVSAAVGGTVTINCQSSQSVYKNNYLAWYQQKPGQPPKLLIYETSKLASGVPPRFSGSGSGTQFTLTISSVQCDDAATYYCQGGYSGVDFMAFGGGTEVVVKG | – | – | – | binding result [1]: no binding (tested: 1000 ng/ml); EC50 (read off the curve) [2]: ~0.3 µg/mL |
| monoclonal antibody 1F-42-7 (antibody, V domains shown, Rabbit monoclonal from hybridoma, raised against the 1F peptide; Biotinylated in the biotin ELISA and Biacore assays; also called IF 42-7; M42) VH: QSVKESEGGLFKPTDTLTLTCTVSGFSLTTYGVTWVRQAPGNGLEWIGLIGDRGTTYYASWVNGRSTITRNTNLNTVTLKMTRLTAADTATYFCARGSGYGARIWGPGTLVTVAS VL: AQVLTQTPSPMSAALGGTVTINCQSSQTVYNNNYLSWYQQKPGQPPKLLIYETSKLSSGVPPRFSGSGSGTQFTLTISSVQCDDAATYYCQGGYSGVDFMAFGGGTEVVVKG | – | – | – | IC50 (read off the curve) [3]: ~1 µg/mL; binding result [1]: no binding (tested: 1000 ng/ml); EC50 (read off the curve) [2]: ~0.3 µg/mL |
| monoclonal antibody 3A-5-2 (antibody, V domains shown, Rabbit monoclonal from hybridoma, raised against the renalase-2 specific peptide 3A (3A5)) VH: QSLEESGGRLVTPGTPLTLTCTVSGFSLNNYHIYWVRQAPGKGLEYIGIIFNGGTYYARWTKGRFTISKTSTTVDLKMTSLTTEDTATYFCARGDGIWGPGTLVTVSL VL: AQVLTQTPASVSAAVGGTVTINCQASQSVFNNNYLAWYQQKPGQPPKRLIYSASTLASGVSSRFKGSGSGTEFTLTMSGVECDDAATYYCAGSFDCNSGDCVAFGGGTEVVVKG | – | – | – | binding result [4]: binds |
| monoclonal antibody 1D-28-4 (antibody, V domains shown, also called m28-RNLS; Ren1D 28-4) VH: QSVEESGGRLVTPGTPLTLTCTVSGFSLSSFAVGWVRQAPGKGLEYIGIISSVGITRYASWAAGRFTISKTSTTVDLKITSPTTEDTATYFCARYGYSGDVNRLDLWGQGTLVTVSS VL: AQVLTQTASPVSAAVGGTVTINCQASQSVYDNNNLAWYQQKPGQPPKQLIYGASTLASGVSSRFKGSGSGTQFTLTISGVQCDDAATYYCLGEFSCSSADCFAFGGGTEVVVKG | ~0.3 | 70 | 1.5 | IC50 (read off the curve) [5]: ~2 µg/mL |
| M28-K5 (humanized, affinity-matured variant of M28) (antibody, V domains shown) VH: EVQLVESGGGLVQPGGSLRLSCAASGFNLSSFAVHWVRQAPGKGLEWVALISGRGTRFYADSVKGRFTISKDTSKNTAYLQMNSLRAEDTAVYYCARHWYSGGVVRLDAWGQGTLVTVSS VL: DIQMTQSPSSLSASVGDRVTITCRASQSVYDNNNVAWYQQKPGKAPKLLIYGASTLYSGVPSRFSGSRSGTDFTLTISSLQPEDFATYYCLGEGPCSVTDCLIFGQGTKVEIKR | – | 3760 | 24.5 | – |
| M28-K16 (humanized, affinity-matured variant of M28) (antibody, V domains shown, the residue limits are my own count) VH: EVQLVESGGGLVQPGGSLRLSCAASGFNLSSFAVHWVRQAPGKGLEWVALISGRGTRFYADSVKGRFTISKDTSKNTAYLQMNSLRAEDTAVYYCARHWYSGGVVRLDAWGQGTLVTVSS VL: DIQMTQSPSSLSASVGDRVTITCRASQSVYDNNNVAWYQQKPGKAPKLLIYGASTLYSGVPSRFSGSRSGTDFTLTISSLQPEDFATYYCLGEFSCSSADCFAFGQGTKVEIKR | ~0.05 | 17.5 | 1700 | EC50 (read off the curve) [9]: ~0.06 nM |
| M28-K13 (humanized, affinity-matured variant of M28) (antibody, V domains shown) VH: EVQLVESGGGLVQPGGSLRLSCAASGFNLSSFAVHWVRQAPGKGLEWVALIGVRGSLYYADSVKGRFTISKDTSKNTAYLQMNSLRAEDTAVYYCARHWYSGGVVRLDAWGQGTLVTVSS VL: DIQMTQSPSSLSASVGDRVTITCRASQSVYDNNNVAWYQQKPGKAPKLLIYGASTLYSGVPSRFSGSRSGTDFTLTISSLQPEDFATYYCLGEFSCSSADCFAFGQGTKVEIKR | – | 31.5 | 25.5 | – |
| M28-K2 (humanized, affinity-matured variant of M28) (antibody, V domains shown) VH: EVQLVESGGGLVQPGGSLRLSCAASGFNLSSFAVHWVRQAPGKGLEWVALIGVRGSLYYADSVKGRFTISKDTSKNTAYLQMNSLRAEDTAVYYCARHWYSGGVVRLDAWGQGTLVTVSS VL: DIQMTQSPSSLSASVGDRVTITCRASQSVYDNNNVAWYQQKPGKAPKLLIYGASTLYSGVPSRFSGSRSGTDFTLTISSLQPEDFATYYCLGEGPCSVTDCLIFGQGTKVEIKR | – | 1330 | 31.7 | – |
| M28-K14 (humanized, affinity-matured variant of M28) (antibody, V domains shown, the residue limits are my own count; also called M28-14) VH: EVQLVESGGGLVQPGGSLRLSCAASGFNLSSFAVHWVRQAPGKGLEWVALISGRGTRFYADSVKGRFTISKDTSKNTAYLQMNSLRAEDTAVYYCARYGYSGDVNRLDLWGQGTLVTVSS VL: DIQMTQSPSSLSASVGDRVTITCRASQSVYDNNNVAWYQQKPGKAPKLLIYGASTLYSGVPSRFSGSRSGTDFTLTISSLQPEDFATYYCLGEGPCSVTDCLIFGQGTKVEIKR | ~0.06 | 1.41 | – | EC50 (read off the curve) [9]: ~0.08 nM |
